The test system of data set [1] is male BALB/c mice. As to the kind of experiment: Intraperitoneal administration to mice, observation of appearance. It is filed as in vivo. Particulars: 10 mg/kg intraperitoneally, male BALB/c mice (6 weeks age).
For data set [2], the system named is motor activity of gastrointestinal tracts. Description: Motor activity of gastrointestinal tracts in the post-feed period in dogs sutured with strain gauge transducers. It is filed as in vivo. How it is done:
An experiment was performed as described below in order to examine the action of glicentin on a motility of gastrointestinal tracts.
Six hybrid dogs weighing 16-18 kg were sutured with strain gauge transducers (manufactured by Star Medical, F121S) at a site of the gastric antrum 4 cm from the pyloric ring, a site of the duodenum for the main incurrent pancreatic duct and a site of the jejunum 10 cm from the Treitz's ligamentum, respectively, to measure the contractile force intensity of the circular muscle. Recovery period for the suture was 2 weeks.
Three of the 6 dogs were intravenously given over 1 hour 15 ml of a physiological saline solution in which 400 pmol of glicentin had been dissolved per kg of bodyweight. The remaining three received an aqueous physiological solution containing no glicentin in the same way as above as a control for comparison. The dogs were fed on 15 g of a solid diet (SD®, manufactured by Oriental Yeast K.K.) and 15 g of Vitaone® (manufactured by Nihon Pet Food K.K. and Kyodo Shiryo K.K.) per kg of bodyweight simultaneously with the intravenous administration.
Then, the motor activity of gastrointestinal tracts and length of the post-feed period were measured. Intensity of the contraction in the post-feed period was integrated for the two-hour measurements and evaluated in comparison with the mean level of the signal peak in phase 3 motor activity of the gastrointestinal tracts in hunger and taken as a motor index.

The mark [3] stands for this setting: 400 pmol/kg i.v. over 1 hour, post-feed contraction integrated over two hours relative to phase 3 peak in hunger, average ± standard error.
The mark [4] stands for this setting: 400 pmol/kg i.v. over 1 hour, versus control.

B1: Glicentin: One of enteroglucagons, a peptide comprising 69 amino acid residues; human glicentin (SEQ ID NO: 1) prepared by genetic engineering (protein)
chain: RSLQDTEEKSRSFSASQADPLSDPDQMNEDKRHSQGTFTSDYSKYLDSRRAQDFVQWLMNTKRNRNNIA
In the case of B1, in data set [1], the Change in appearance entry was “no change in appearance is observed”. Further, in data set [2] (400 pmol/kg glicentin intravenously over 1 hour, fed simultaneously, average ± standard error), the “Length of post-feed period” value was found to be 13.6 ± 1.0 h. In data set [2] (setting [3]), the “Motor index, duodenum” value was found to be 0.675 ± 0.4; the “Motor index, gastric antrum” value is reported as 0.878 ± 0.1; the “Motor index, jejunum” value is 1.087 ± 0.2. In data set [2] (setting [4]), the “Influence upon the length of the post-feed period (in words)” value was “no influence upon the length of the post-feed period” and the “Post-feed motility in the vestibulum of stomach (in words)” value was “inhibited the post-feed motility in the vestibulum of stomach”.

For the origin of these results see US5576295A, “Agent for suppressing the motor activity of gastrointestinal tracts” (Nisshin Flour Milling Co., Ltd., priority 1993, dated 1996).
